# According to article PMC3861672:
# Biological target: Fps1 (UniProt P23900)
# Assay: BiFC, split CFP
# Settings: reference: no sorbitol
substance,measurement,value
"Hog1 (from UniProt P32485) 1 M sorbitol, 5 min",other: percent of cells with detectable fluorescence,stronger; reference 27.6
